Substitutions are numbered along the chain they refer to. Names may count otherwise. One block for each binder: values may come before it.
Assays:
Human CD137 ECD (human) [1] = assay: single mutant vs template dBBDu183H
Human CD137 ECD (human) [2] = assay: SPR, vs parent H183/L072

Human CD137 ECD (human), sequence (chain, as listed by the source limits assumed): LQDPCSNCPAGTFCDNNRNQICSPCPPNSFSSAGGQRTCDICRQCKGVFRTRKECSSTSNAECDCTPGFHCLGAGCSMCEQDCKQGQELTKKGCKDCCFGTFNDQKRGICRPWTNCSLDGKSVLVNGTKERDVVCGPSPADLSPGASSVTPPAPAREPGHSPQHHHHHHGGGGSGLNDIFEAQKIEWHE

B3: H183/L072 VH D52aI (antibody, name in Kabat numbering, V domains shown)
VH: QVQLVESGGGLVQPGRSLRLSCAASGFTFSNAWMHWVRQAPGKGLEWVAQIKIKGNAYAAYYAPSVKGRFTISRDDSKNSIYLQMNSLKTEDTAVYYCHYVHYASASTVLPAFGVDAWGQGTTVTVSS
VL: DIVMTQSPLSLPVTPGEPASISCQASQELVHMNRNTYLHWYQQKPGQAPRLLIYKVSNRFPGVPDRFSGSGSGTDFTLKISRVEAEDVGVYYCAQGTSVPFTFGQGTKLEIK
fold change of affinity (Human CD137 ECD (human) [1]): 0 fold

B5: H183/L072 VH D52aL (antibody, name in Kabat numbering, V domains shown)
VH: B3 VH with I53L
VL: B3 VL
fold change of affinity (Human CD137 ECD (human) [1]): 0 fold

B8: H183/L072 VH H35P (antibody, name in Kabat numbering, V domains shown)
VH: B3 VH with H35P, I53D
VL: B3 VL
fold change of affinity (Human CD137 ECD (human) [1]): 0 fold

B9: dBBDu183H P100eY / dBBDu072L (antibody, name in Kabat numbering, V domains shown)
VH: B3 VH with I53D, P111Y
VL: B3 VL
fold change of affinity (Human CD137 ECD (human) [2]): 0 fold

B10: H183/L072 VH K52P (antibody, name in Kabat numbering, V domains shown)
VH: B3 VH with K52P, I53D
VL: B3 VL
fold change of affinity (Human CD137 ECD (human) [1]): 0 fold

B11: H183/L072 VH D52aM (antibody, name in Kabat numbering, V domains shown)
VH: B3 VH with I53M
VL: B3 VL
fold change of affinity (Human CD137 ECD (human) [1]): 0 fold

B12: H183/L072 VH A54P (antibody, name in Kabat numbering, V domains shown)
VH: B3 VH with I53D, A57P
VL: B3 VL
fold change of affinity (Human CD137 ECD (human) [1]): 0 fold

B13: H183/L072 VH N53A (antibody, name in Kabat numbering, V domains shown)
VH: B3 VH with I53D, N56A
VL: B3 VL
fold change of affinity (Human CD137 ECD (human) [1]): 0 fold

B17: H183/L072 VH Y55P (antibody, name in Kabat numbering, V domains shown)
VH: B3 VH with I53D, Y58P
VL: B3 VL
fold change of affinity (Human CD137 ECD (human) [1]): 0 fold

B18: H183/L072 VH N53M (antibody, name in Kabat numbering, V domains shown)
VH: B3 VH with I53D, N56M
VL: B3 VL
fold change of affinity (Human CD137 ECD (human) [1]): 0 fold

B19: H183/L072 VH N31M (antibody, name in Kabat numbering, V domains shown)
VH: B3 VH with N31M, I53D
VL: B3 VL
fold change of affinity (Human CD137 ECD (human) [1]): 0 fold

B28: H183/L072 VH D52aA (antibody, name in Kabat numbering, V domains shown)
VH: B3 VH with I53A
VL: B3 VL
fold change of affinity (Human CD137 ECD (human) [1]): 0 fold

B32: dBBDu183H S100aY / dBBDu072L (antibody, name in Kabat numbering, V domains shown)
VH: B3 VH with I53D, S107Y
VL: B3 VL
fold change of affinity (Human CD137 ECD (human) [2]): 0 fold

B33: H183/L072 VH N53I (antibody, name in Kabat numbering, V domains shown)
VH: B3 VH with I53D, N56I
VL: B3 VL
fold change of affinity (Human CD137 ECD (human) [1]): 0 fold

B34: H183/L072 VH K52I (antibody, name in Kabat numbering, V domains shown)
VH: B3 VH with K52I, I53D
VL: B3 VL
fold change of affinity (Human CD137 ECD (human) [1]): 0 fold

B35: H183/L072 VH M34A (antibody, name in Kabat numbering, V domains shown)
VH: B3 VH with M34A, I53D
VL: B3 VL
fold change of affinity (Human CD137 ECD (human) [1]): 0 fold

B37: dBBDu183H T100bY / dBBDu072L (antibody, name in Kabat numbering, V domains shown)
VH: B3 VH with I53D, T108Y
VL: B3 VL
fold change of affinity (Human CD137 ECD (human) [2]): 0 fold

B38: H183/L072 VH W33A (antibody, name in Kabat numbering, V domains shown)
VH: B3 VH with W33A, I53D
VL: B3 VL
fold change of affinity (Human CD137 ECD (human) [1]): 0 fold

B40: dBBDu183H D101Y / dBBDu072L (antibody, name in Kabat numbering, V domains shown)
VH: B3 VH with I53D, D116Y
VL: B3 VL
fold change of affinity (Human CD137 ECD (human) [2]): 0 fold

B41: H183/L072 VH Q50P (antibody, name in Kabat numbering, V domains shown)
VH: B3 VH with Q50P, I53D
VL: B3 VL
fold change of affinity (Human CD137 ECD (human) [1]): 0 fold

B42: dBBDu183H A102Y / dBBDu072L (antibody, name in Kabat numbering, V domains shown)
VH: B3 VH with I53D, A117Y
VL: B3 VL
fold change of affinity (Human CD137 ECD (human) [2]): 0 fold

B44: H183/L072 VH D52aV (antibody, name in Kabat numbering, V domains shown)
VH: B3 VH with I53V
VL: B3 VL
fold change of affinity (Human CD137 ECD (human) [1]): 0 fold

B46: H183/L072 VH K52A (antibody, name in Kabat numbering, V domains shown)
VH: B3 VH with K52A, I53D
VL: B3 VL
fold change of affinity (Human CD137 ECD (human) [1]): 0 fold

B47: H183/L072 VH W33M (antibody, name in Kabat numbering, V domains shown)
VH: B3 VH with W33M, I53D
VL: B3 VL
fold change of affinity (Human CD137 ECD (human) [1]): 0 fold

Second part, the binder after the results:

fold change of affinity (Human CD137 ECD (human) [1]): 0 fold
B1: H183/L072 VH F29A (antibody, name in Kabat numbering, V domains shown)
VH: B3 VH with F29A, I53D
VL: B3 VL

fold change of affinity (Human CD137 ECD (human) [1]): 0 fold
B2: H183/L072 VH H35L (antibody, name in Kabat numbering, V domains shown)
VH: B3 VH with H35L, I53D
VL: B3 VL

fold change of affinity (Human CD137 ECD (human) [1]): 0 fold
B4: H183/L072 VH I51P (antibody, name in Kabat numbering, V domains shown)
VH: B3 VH with I51P, I53D
VL: B3 VL

fold change of affinity (Human CD137 ECD (human) [1]): 0 fold
B6: H183/L072 VH K52V (antibody, name in Kabat numbering, V domains shown)
VH: B3 VH with K52V, I53D
VL: B3 VL

fold change of affinity (Human CD137 ECD (human) [1]): 0 fold
B7: H183/L072 VH H35M (antibody, name in Kabat numbering, V domains shown)
VH: B3 VH with H35M, I53D
VL: B3 VL

fold change of affinity (Human CD137 ECD (human) [2]): 0 fold
B14: dBBDu183H A100fY / dBBDu072L (antibody, name in Kabat numbering, V domains shown)
VH: B3 VH with I53D, A112Y
VL: B3 VL

fold change of affinity (Human CD137 ECD (human) [1]): 0 fold
B15: H183/L072 VH D52aP (antibody, name in Kabat numbering, V domains shown)
VH: B3 VH with I53P
VL: B3 VL

fold change of affinity (Human CD137 ECD (human) [2]): 0 fold
B16: dBBDu183H V100iY / dBBDu072L (antibody, name in Kabat numbering, V domains shown)
VH: B3 VH with I53D, V115Y
VL: B3 VL

fold change of affinity (Human CD137 ECD (human) [1]): 0 fold
B20: H183/L072 VH N53V (antibody, name in Kabat numbering, V domains shown)
VH: B3 VH with I53D, N56V
VL: B3 VL

fold change of affinity (Human CD137 ECD (human) [1]): 0 fold
B21: H183/L072 VH A57L (antibody, name in Kabat numbering, V domains shown)
VH: B3 VH with I53D, A60L
VL: B3 VL

fold change of affinity (Human CD137 ECD (human) [1]): 0 fold
B22: H183/L072 VH Q50A (antibody, name in Kabat numbering, V domains shown)
VH: B3 VH with Q50A, I53D
VL: B3 VL

fold change of affinity (Human CD137 ECD (human) [2]): 0 fold
B23: dBBDu183H L100dY / dBBDu072L (antibody, name in Kabat numbering, V domains shown)
VH: B3 VH with I53D, L110Y
VL: B3 VL

fold change of affinity (Human CD137 ECD (human) [1]): 0 fold
B24: H183/L072 VH G26V (antibody, name in Kabat numbering, V domains shown)
VH: B3 VH with G26V, I53D
VL: B3 VL

fold change of affinity (Human CD137 ECD (human) [1]): 0 fold
B25: H183/L072 VH N53L (antibody, name in Kabat numbering, V domains shown)
VH: B3 VH with I53D, N56L
VL: B3 VL

fold change of affinity (Human CD137 ECD (human) [1]): 0 fold
B26: H183/L072 VH H35I (antibody, name in Kabat numbering, V domains shown)
VH: B3 VH with H35I, I53D
VL: B3 VL

fold change of affinity (Human CD137 ECD (human) [1]): 0 fold
B27: H183/L072 VH W33V (antibody, name in Kabat numbering, V domains shown)
VH: B3 VH with W33V, I53D
VL: B3 VL

fold change of affinity (Human CD137 ECD (human) [1]): 0 fold
B29: H183/L072 VH W33I (antibody, name in Kabat numbering, V domains shown)
VH: B3 VH with W33I, I53D
VL: B3 VL

fold change of affinity (Human CD137 ECD (human) [1]): 0 fold
B30: H183/L072 VH A32P (antibody, name in Kabat numbering, V domains shown)
VH: B3 VH with A32P, I53D
VL: B3 VL

fold change of affinity (Human CD137 ECD (human) [1]): 0 fold
B31: H183/L072 VH W33P (antibody, name in Kabat numbering, V domains shown)
VH: B3 VH with W33P, I53D
VL: B3 VL

fold change of affinity (Human CD137 ECD (human) [1]): 0 fold
B36: H183/L072 VH Y55I (antibody, name in Kabat numbering, V domains shown)
VH: B3 VH with I53D, Y58I
VL: B3 VL

fold change of affinity (Human CD137 ECD (human) [1]): 0 fold
B39: H183/L072 VH H35A (antibody, name in Kabat numbering, V domains shown)
VH: B3 VH with H35A, I53D
VL: B3 VL

fold change of affinity (Human CD137 ECD (human) [2]): 0 fold
B43: dBBDu183H G100hY / dBBDu072L (antibody, name in Kabat numbering, V domains shown)
VH: B3 VH with I53D, G114Y
VL: B3 VL

fold change of affinity (Human CD137 ECD (human) [1]): 0 fold
B45: H183/L072 VH N53P (antibody, name in Kabat numbering, V domains shown)
VH: B3 VH with I53D, N56P
VL: B3 VL
